The target in this assay is T1, GST-IFT54 (mouse, UniProt Q149C2 1-625).
T1 sequence (looked up): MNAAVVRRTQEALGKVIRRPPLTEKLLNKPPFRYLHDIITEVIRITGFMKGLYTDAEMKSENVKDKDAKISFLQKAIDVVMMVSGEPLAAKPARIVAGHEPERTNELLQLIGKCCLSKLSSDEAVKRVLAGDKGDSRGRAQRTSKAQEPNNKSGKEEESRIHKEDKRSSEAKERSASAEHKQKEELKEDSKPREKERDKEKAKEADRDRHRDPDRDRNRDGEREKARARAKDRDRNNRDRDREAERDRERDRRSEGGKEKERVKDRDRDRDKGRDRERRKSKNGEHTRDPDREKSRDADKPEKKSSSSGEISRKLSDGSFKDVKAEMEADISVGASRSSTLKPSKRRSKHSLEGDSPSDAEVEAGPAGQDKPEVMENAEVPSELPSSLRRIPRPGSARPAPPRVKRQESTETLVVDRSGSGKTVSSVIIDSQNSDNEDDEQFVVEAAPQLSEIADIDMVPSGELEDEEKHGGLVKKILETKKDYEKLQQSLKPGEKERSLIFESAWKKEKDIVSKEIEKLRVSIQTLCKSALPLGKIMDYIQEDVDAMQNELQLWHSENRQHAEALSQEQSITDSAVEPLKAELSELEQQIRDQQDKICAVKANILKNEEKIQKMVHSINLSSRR
The assay is described as follows: pull-down.

B1: purified, untagged IFT20 (natural protein, mouse, UniProt Q61025-1 1-132, looked up)
chain: MAKDILGEAGLHFDELNKLRVLDPEVTQQTVELKEECKDFVDKIGQFQKIVGGLIELVDQLAKEAENEKMKAIGARNLLKSIAKQREAQQQQLQALIAEKKTQLERYRVEYEALCKVEAEQNEFIDQFIFQK
On to B1, for which the binding result is “binds”.

The values above are taken from publication PMC3069017 (Molecular Biology of the Cell, 2011).
